Assay results reported in a protein production outcome set (Wang et al. 2014).

Assay: label from the status in PepcDB records
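Further: failed if final PepcDB status was selected cloned or expressed and not failed if soluble or beyond.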

Sequence: MSDDLMHEPDAAQAILPPGFLKNPVHLLAFGFGSGAAPRAPGTWGSLAAIPLWYAFSWLPPAAYWLVVLAAFLVGIWLCGKTAADLKVHDHGGIVWDEFVGMWIALGLFPDQLYGVLMAFMLFRLFDVWKPWPINWLDERLPGGLGIMVDDVVAGAMALGCLWAIDVWVMPYIV
- protein production: failed

Sequence: MSETAIQTKTQARQRKVFAHHHVQHYRSQLERRISHSPQFREGKVINAMPHITATPSWWQTAWSYFGGRAQLKPNAQLPVAPLNLQALQTRSKALRVTWLGHSSLFIEVDGLRVLTDPVFDYASPWIAKAWFARNLPNSGVREQLPLPDVIVISHDHYDHLEQASVVYYAAHSVTFYVPLGVGQHLIRWGVSPERIIEFDWWEQIKREGVEFICTPANHNSGRYYLDHNATLWCSWVIKGHQETLYFSGDSAYDTHFAKIAERCGPIDLACLEVAADVKQHQGYPVENWGHMQAKHTVQAFRDLQAKKLLPIHWATYELFTHQWDEPIADLVKHCQEQSITLLTPMAGESLTMANHSASHAWWQGLETEPMSGARYWQMGLACSLLLLLMVV
- protein production: failed

Sequence: MVLKRKGLLIILDGLGDRPIKELNGLTPLEYANTPNMDKLAEIGILGQQDPIKPGQPAGSDTAHLSIFGYDPYETYRGRGFFEALGVGLDLSKDDLAFRVNFATLENGIITDRRAGRISTEEAHELARAIQEEVDIGVDFIFKGATGHRAVLVLKGMSRGYKVGDNDPHEAGKPPLKFSYEDEDSKKVAEILEEFVKKAQEVLEKHPINERRRKEGKPIANYLLIRGAGTYPNIPMKFTEQWKVKAAGVIAVALVKGVARAVGFDVYTPEGATGEYNTNEMAKAKKAVELLKDYDFVFLHFKPTDAAGHDNKPKLKAELIERADRMIGYILDHVDLEEVVIAITGDHSTPCEVMNHSGDPVPLLIAGGGVRTDDTKRFGEREAMKGGLGRIRGHDIVPIMMDLMNRSEKFGA
- protein production: not failed

Sequence: MSKVDTIQEKLIPPIMKFANSKIITAIKDGVIITMPLTLVGSIFLLIANFPIKSWNSWMTAIFGPNWAVPLTQVSGSTFDIMAIAAVIGIAAQYSKNEGQDPVTAGLLGAVAFLIIMPSYSPINIGDKVGGIVMKHADKVQSVIPKAWTGGKGMIAALIIGVLTGYIYSWFLKRDIRIKLPESVPSGVSNAFSALIPGAVIITGSMLIFIFFNIVTGATALEWIYKVLQIPLQGITDSLGGAIAIPFVISFFWWFGVHGATLIGGVMNSIYQANTLANQDVFKAGHKLIASGAGKNAHIVCQQFQDNFVTLGGSGITLGLVAACFLFARSQRLKQLGKLALVPGCFNINEPVLFGLPIVLNPLMFIPFLICPLVSGILTYFAIYTGLVPCFTAVQAIWTTPPVLSGLIVAGWRGAVLQLIIIAIAAIVYFPFFKSLDKQYYQEEISGEAE
- protein production: failed

Sequence: MQYINIANRGVKSLSPYQAGKPIEELERELGISNIVKLASNENPFGFPESAKKAIFEQLDKLTRYPDANGFELKQTIAKKFGVQPNQITLGNGSNDLLELFAHTFATEGDEIMYSQYAFIVYPLVTKAINAIVKEIPAKNWGHDLQGFLTALSDKTKLIYIANPNNPTGNFLTSQEIEDFLAEVPENVIVVLDEAYTEFTRSEERVDSFSLLKKYSNLIISRSLSKAYGLAGLRIGYAVSNPEIADLLNRVRQPFNCNSLALTAAVAVMNDDKFVEKVAENNRIEMRRYEDFCQKNQLDYIPSKGNFITIDFKQPAAPIYDALLREGVIVRPIAGYGMPNHLRISIGLPEENDKFFTALSKVLKFA
- protein production: not failed

Sequence: MAQSINITELNLPQLEMLKNQLDQEVEFLSTSIAQLKVVQTKYVEAKDCLNVLNKSNEGKELLVPLTSSMYVPGKLHDVEHVLIDVGTGYYVEKTAEDAKDFFKRKIDFLTKQMEKIQPALQEKHAMKQAVMEMMSQKIQQLTALGAAQATVKA
- protein production: failed

Sequence: MVKFIHCSDLHLDSPFKSKSHISPKIFEDVQKSAYESFKNIVDIALQQDVDFVIIAGDLFDSENRTLRAEIFLKQQFERLQNEQIFVYVCHGNHDPLSSKISSNWPDNVSVFSNKVETYEAITKSGETIYIHGFSYENRASYENKIDEYPSSQGQKGIHIGVLHGTYSKSSVNERYTEFILEDLNSKLYHYWALGHIHERQQLSDMPVINYSGNIQGRHFNEQGEKGCLLIEGDHLKLKTKFYPTQYIRFEEATIETDKTSKQGLYEVIQNFKEQVREEGKAFYRLTLVINSETLISPQDLLQVEEMITDYEENENQFVYIDELKIQYAQNDESPLVNEFSAELLVDQTVFDKAMSDLYLNPRASKFLDDYGTFDHTALVNRAEEILKAEMRGEQNDN
- protein production: failed

Sequence: EGLNICKKIMVISDKNDAISEFIIKELERGCTIIDGKGGYTGKDTYILYTVLNRKEFIRLRIFIKETDPNAFITISDAKEVLGEGFKEI
- protein production: not failed

Sequence: MEIQEMAKRFSPEFKQQAIDYALSNSHEPIATIAQKLGVGYSTLDKWIREANPVGSSKRQLSPEQQRILELEKEVKQLREANDILKKAHVYFLTDHAKKSTR
- protein production: failed

Sequence: MTSTHQAAHRTGSTMRLRILIATDTYPPDVNGASYFTYRLATGLAERGHDVHVVCASASGPPRVEVQDGVVLHRMRSVPVLVHPTMRTALPLGLTGHIARIVDRLAPHVVHVQSHFTISRTALRCGRMAGVPVVLTNHFMPDNLFAHAHIPPRLHGVVGSLAWQDMIRVARTADYVTTPTQRAAELLASKGFTRTVEAVSCGIDLDRFRPRPQDRAQARAHFGLPDRETMVFVGRLDEEKRIDESIRALPVLLRHRDVQLVLAGTGQRREELERLARSLGVAERVHFLGFVPDDDLPLVYVAADLFVIGSVAELQSIATLEAMSTGLPVVAADALALPHLVRPGRNGYLYPPGDVAQLAQRLLDVLESPDRRTAMGRASRDIAQTHDHHRSLDRFEQIYTEVRPRSWTLSRSASPAARQRDTTVAA
- protein production: failed

Sequence: MSFLKPKTHIEKGDVVILYLSVSSMHAIEAVPEIVNKKGETIPHIFQTNYGSLKVENIIGVEYGSKVELSKGWAHVLQPTPELWTQTLPHRTQIIYTPDISMIIHQLEVRPGAVVVESGTGSGSLSHYFLRALKPTGHLHTFDFHEARADQARDEFRRHGIADFVTVYHRDVCNLGFGAELDGKADAVFLDLPAPDLAVPHAFKALKLSGGRFCSFSPCIEQSQRCIQELTKLGFNEIVSLEVLQQENVVKTRTLPVIDLEFLKLPKTDETTAATNALESKAPKEVKKYLTSSNPQTLPGHTGFLTFATLPPNIPKA
- protein production: failed

Sequence: KLKISEASLEDYSEVVHLFNRNHVYQFPDGRPLTVDDLDLTLKVKEVTHLFLLKNHGVLIGTSAFFKFITYGCLDWNSSFSGFLLIDSKSRSGQAITYLYKTILKKITKLKFSNIYTEISNYNKPSLALSKLNGFKEYDKTYEDILHCRSLRSHL
- protein production: failed

Sequence: MLILKNSMASPHPFPWPQRFTVMALTFAWGLSLPVLAQTKSAVQWYNDGVDKLAAQNFSGAIADFTESIKLNDQDADAYYNRGYAKHVLGQYQAAITDYNQAISLNPEFAYALGNRCYAYFLLSQYDKAIQDCSNAIEINPNYADFYVYRGNSQSQLGNETTAIADYNDAIRINAQHANAYYNRALTHNRLKQDQQALADYNQSIQLDPDSAEAYFNRGLTQYRLGDEPKAIADLTKAAELFNAQEKKDMAQKAEAILTQIRAIDA
- protein production: failed

Sequence: EVLLETLNATELNETTASLAVHQTMKENGQLFVSNSMAIRYLDRFMDSRPYRMFGNRGINGIDGIVSTALGMSAIAPTQQNVLLIGDLALYHDMNGLFLAKRYQLPLTIVLLNNNGGGIFSFLSQRTLREDDFEPLFGTPLDLDFSLVAELYGASYQEVKTIAELKQILQAAAEEPQFQVIEVKGNRQEN
- protein production: not failed

Sequence: MLTNSINYSELSDVAAFVCVVQTGSFTAAAEQLNTSKSVISKYITRLEKRLGVKLLARTTRRLTLTEIGRTFYEGSRQGLEAIDNAEEAVSFLQGKPRGTLKINAPLSFGALHIAPALEEFIHRYPEMQIDLRFDDKKIDMIKDGFDLTVRITHQLEGNLIARRIAPCHHALVAAPNYLAKRGTPKRPEDLVAHNVITYQYQQSPWEWEFTAAKSKPKRVRVNGSVQMNNSLAIREAVLAGVGISRMPTFAVGEDIKSGRLIQLLPKYSLLEHSIYLVFPERNHMAPKTRAFIDYMVKIMEGKPSWDRF
- protein production: failed

Sequence: MKFTKNQFIWLVVLFFSCFLIYTYWETVVSICNKIFVASQPFLFGAGIAFVVNILMSFYEKILIKFIPFGFITKIKRPVSLLLAFATIGLIFTWVVFTVLPDLIDSINTLISQDRSAINNLINWLLKNKSLQKIIQDLGGVTQVRELINSYSAQLLQQIMNGLTNFLTSLTSLPSTLINLFISIVFSCYVLVGKEKLGSQVNRLVDVYLGRYGKTFHYVVAILNNRFHNFFVYQSIEACILGTLCYIGMRIFNFPYAATISILIGFSAMIPVLGAYIGVTIGTILIMTHSVTLALLFVAYVVILQQFEGNLIYPYVVGGSTGLPVVWVILAITIGSALGGILGMLVSVPVAATLYQIVKDNVVTREKAKAVASLENSD
- protein production: not failed

Sequence: MFVGFLSGLIVMGALLSILLVLLGVMALRVFVRYILPILLILLIIRLIISGIVLLFNPHFWLFIAVVALVLWILGKIRN
- protein production: failed

Sequence: MAVRVCCHAPPGVSNHLFTFCAGNLTTGFSGGSVTSQKGGAAGLPTCSRRCPRGCLPGSDPLPRHPRRYAPPVTPPVTPPTTPAPRSRARMLELVFPKDTNYHGTAFGGWVLALMDKAASVAAVRHAGGNVVTARMDGVDFHVPIRVGDAVALDARVIRVGRSSMTIRVDVYRENMASGEQQLATGGLFTFVALGEDGKPRPVPPLPEGSTDSEQPDYEARPLEHHHHHH
- protein production: failed

Sequence: MLGLKTSIIGRRVIYFQEITSTNEFAKTSYLEEGTVIVADKQTMGHGRLNRKWESPEGGLWLSIVLSPKVPQKDLPKIVFLGAVGVVETLKEFSIDGRIKWPNDVLVNYKKIAGVLVEGKGDKIVLGIGLNVNNKVPNGATSMKLELGSEVPLLSVFRSLITNLDRLYLNFLKNPMDILNLVRDNMILGVRVKILGDGSFEGIAEDIDDFGRLIIRLDSGEVKKVIYGDVSLRFL
- protein production: not failed

Sequence: SAAPVDLELKKAFTELQAKVIDTQQKVKLADIQIEQLNRTKKHAHLTDTEIMTLVDETNMYEGVGRMFILQSKEAIHSQLLEKQKIAEEKIKELEQKKSYLERSVKEAEDNIREMLMARRAQ
- protein production: failed

Sequence: MNFLSQRYTGKSLHPDETKCYKNFTQTAQKLTHRLAESINHYVNHIDCVINTNLYNRLLAEKKESNHMIYKERETWLEAILNTLPDHVFILDESGRYIESFGGTHHSKTFNAERYIGLQLSDVLSPTKADELMGFIFDVMQDNETKVVKYNLSLHDHLLLPIEELEALENPEEMWFEAIIKPVNAPENANKLVIWSVRDITKTHLLEQRLKQLSETDALTGLLNRRAFISNLDNAIIQHTKRSQTLSCLMIDIDHFKDINDSVGHFSGDHVITRIAHVCQGVIRGSDFIGRLGGEEFAVILTDTNAIQAYEVAERIRQAIQATICHVDDVEITTTVSIGVAELNSQQSNAKELLIEADKAMYYSKHSGRNQVTLAYENLPDLKLYQAGHLKIQRVS
- protein production: failed

Sequence: MDWYLKVLKNYVGFRGRARRKEYWMFILVNIIFTFVLGLLDKMLGWQRAGGEGILTTIYGILVFLPWWAVQFRRLHDTDRSAWWALLFLIPFIGWLIIIVFNCQAGTARRKPLWTRSKTGTLKQICSPDV
- protein production: failed

Sequence: MLWARLVGLARLEARALSKKERRSLLERLKPYYTRIPFSEKADLRLVKARTDSGEYEIITVDGVPCLFEWSDGRIYPTLQCLKAFGVDWLKGVVLVDKGAAIALAKGAHLMIPGVVGVEGSFTRGDVVAALYHETRTPVMVGVAEVDSSALEKLYREKARGRAVRRVHRLGDALWELAQEVGKRLS
- protein production: not failed

Sequence: MLTPRFDIQPAVSVILPTFDRAPLLASAIESVVAQNFAEWELIVVDDGSSDETFEIVDGYLNQHANIRYMKHRNRKAALSRNAGIQAAFGRYITFLDSDDLYLPEHLESRLHLLESMPEVRLISGGFVCEGDPWVRDRDDPEKLIHVSECIAGATMFGRRELFLDIGGFRALDYAEDTDLWERAARSHKVLKIDQPVSYIYRRSPGSITRTYKPAKPLEHHHHHH
- protein production: not failed
